Assay results taken from FireProtDB (doi:10.1529/biophysj.104.051052).

Conditions: Canavalia ensiformis, pH 7, Fluorescence, HEPES 25 mM, CaCl2 15 mM, reversible: yes, whole UniProt chain shown; for denaturant m value: GdnHCl

B1: Concanavalin-A wild type, P02866 (protein)
chain: MAISKKSSLFLPIFTFITMFLMVVNKVSSSTHETNALHFMFNQFSKDQKDLILQGDATTGTDGNLELTRVSSNGSPQGSSVGRALFYAPVHIWESSAVVASFEATFTFLIKSPDSHPADGIAFFISNIDSSIPSGSTGRLLGLFPDANVIRNSTTIDFNAAYNADTIVAVELDTYPNTDIGDPSYPHIGIDIKSVRSKKTAKWNMQNGKVGTAHIIYNSVDKRLSAVVSYPNADSATVSYDVDLDNVLPEWVRVGLSASTGLYKETNTILSWSFTSKLKSNEIPDIATVV
denaturant m value (7 °C): 1.3 kcal/mol/M
denaturant m value (12 °C): 1.6 kcal/mol/M
denaturant m value (18 °C): 1.8 kcal/mol/M
denaturant m value (27 °C): 2.1 kcal/mol/M
denaturant m value (30 °C): 2.3 kcal/mol/M
denaturant m value (39 °C): 2.2 kcal/mol/M
Tm (Thermal): 98.5 °C
heat capacity change of unfolding (Thermal): 4.2 kcal/mol/K
unfolding enthalpy (van 't Hoff) (Thermal): 179 kcal/mol
